Data: the array DNA melting data of Ke et al.

Assay: melting temperature; melt of duplexes
Settings: sodium 0.0675 M; strand 1 µM

CGACGTGCTAGATGTGCTG+CAGCACATGACGCACGTCG ((((((((...((((((((+))))))))...))))))))
Tm: 48.1 °C

CGACGTGCTAGATGTGCTG+CAGCACATGGTGCACGTCG ((((((((...((((((((+))))))))...))))))))
Tm: 46.9 °C

CGACGTGCTAGATGTGCTG+CAGCACATTAAGCACGTCG (((((((((..((((((((+))))))))..)))))))))
Tm: 53.3 °C

CGACGTGCTAGATGTGCTG+CAGCACATTAGGCACGTCG ((((((((...((((((((+))))))))...))))))))
Tm: 52.2 °C

CGACGTGCTAGATGTGCTG+CAGCACATTGAGCACGTCG (((((((((..((((((((+))))))))..)))))))))
Tm: 54 °C

CGACGTGCTAGATGTGCTG+CAGCACATTGCGCACGTCG ((((((((...((((((((+))))))))...))))))))
Tm: 49.2 °C

CGACGTGCTAGATGTGCTG+CAGCACATTGTGCACGTCG ((((((((...((((((((+))))))))...))))))))
Tm: 48.5 °C

CGACGTGCTAGATGTGCTG+CAGCACATTTAGCACGTCG ((((((((((.((((((((+)))))))).))))))))))
Tm: 56.6 °C

CGACGTGCTAGATGTGCTG+CAGCACATTTCGCACGTCG ((((((((.(.((((((((+)))))))).).))))))))
Tm: 50.1 °C

CGACGTGCTAGATGTGCTG+CAGCACATTTTGCACGTCG ((((((((.(.((((((((+)))))))).).))))))))
Tm: 52 °C

CGACGTGCTATATGTGCTG+CAGCACATAAAGCACGTCG (((((((((.(((((((((+))))))))).)))))))))
Tm: 55.6 °C

CGACGTGCTATATGTGCTG+CAGCACATAACGCACGTCG ((((((((..(((((((((+)))))))))..))))))))
Tm: 50.8 °C

CGACGTGCTATATGTGCTG+CAGCACATAATGCACGTCG ((((((((..(((((((((+)))))))))..))))))))
Tm: 53 °C

CGACGTGCTATATGTGCTG+CAGCACATACCGCACGTCG ((((((((..(((((((((+)))))))))..))))))))
Tm: 49.3 °C

CGACGTGCTATATGTGCTG+CAGCACATAGGGCACGTCG ((((((((..(((((((((+)))))))))..))))))))
Tm: 53.2 °C

CGACGTGCTATATGTGCTG+CAGCACATAGTGCACGTCG ((((((((..(((((((((+)))))))))..))))))))
Tm: 49 °C

CGACGTGCTATATGTGCTG+CAGCACATCACGCACGTCG ((((((((...((((((((+))))))))...))))))))
Tm: 47.9 °C

CGACGTGCTATATGTGCTG+CAGCACATCCAGCACGTCG (((((((((..((((((((+))))))))..)))))))))
Tm: 50.2 °C

CGACGTGCTATATGTGCTG+CAGCACATCCCGCACGTCG ((((((((...((((((((+))))))))...))))))))
Tm: 47.2 °C

CGACGTGCTATATGTGCTG+CAGCACATCGAGCACGTCG (((((((((..((((((((+))))))))..)))))))))
Tm: 51.5 °C

CGACGTGCTATATGTGCTG+CAGCACATCTCGCACGTCG ((((((((.(.((((((((+)))))))).).))))))))
Tm: 48.3 °C

CGACGTGCTATATGTGCTG+CAGCACATGAAGCACGTCG (((((((((..((((((((+))))))))..)))))))))
Tm: 53.2 °C

CGACGTGCTATATGTGCTG+CAGCACATGACGCACGTCG ((((((((...((((((((+))))))))...))))))))
Tm: 47.6 °C

CGACGTGCTATATGTGCTG+CAGCACATGATGCACGTCG ((((((((...((((((((+))))))))...))))))))
Tm: 51.9 °C

CGACGTGCTATATGTGCTG+CAGCACATGCAGCACGTCG (((((((((..((((((((+))))))))..)))))))))
Tm: 52.5 °C

CGACGTGCTATATGTGCTG+CAGCACATGCTGCACGTCG ((((((((...((((((((+))))))))...))))))))
Tm: 48.1 °C

CGACGTGCTATATGTGCTG+CAGCACATGGGGCACGTCG ((((((((...((((((((+))))))))...))))))))
Tm: 51 °C

CGACGTGCTATATGTGCTG+CAGCACATGGTGCACGTCG ((((((((...((((((((+))))))))...))))))))
Tm: 47.7 °C

CGACGTGCTATATGTGCTG+CAGCACATGTGGCACGTCG ((((((((.(.((((((((+)))))))).).))))))))
Tm: 53.6 °C

CGACGTGCTATATGTGCTG+CAGCACATGTTGCACGTCG ((((((((.(.((((((((+)))))))).).))))))))
Tm: 52.6 °C

CGACGTGCTATATGTGCTG+CAGCACATTATGCACGTCG ((((((((...((((((((+))))))))...))))))))
Tm: 51.6 °C

CGACGTGCTATATGTGCTG+CAGCACATTCCGCACGTCG ((((((((...((((((((+))))))))...))))))))
Tm: 47.8 °C

CGACGTGCTATATGTGCTG+CAGCACATTCTGCACGTCG ((((((((...((((((((+))))))))...))))))))
Tm: 49 °C

CGACGTGCTATATGTGCTG+CAGCACATTGAGCACGTCG (((((((((..((((((((+))))))))..)))))))))
Tm: 52.9 °C

CGACGTGCTATATGTGCTG+CAGCACATTGCGCACGTCG ((((((((...((((((((+))))))))...))))))))
Tm: 47.4 °C

CGACGTGCTATATGTGCTG+CAGCACATTGGGCACGTCG ((((((((...((((((((+))))))))...))))))))
Tm: 50.5 °C

CGACGTGCTATATGTGCTG+CAGCACATTGTGCACGTCG ((((((((...((((((((+))))))))...))))))))
Tm: 47.2 °C

CGACGTGCTATATGTGCTG+CAGCACATTTCGCACGTCG ((((((((.(.((((((((+)))))))).).))))))))
Tm: 49 °C

CGACGTGCTATATGTGCTG+CAGCACATTTTGCACGTCG ((((((((.(.((((((((+)))))))).).))))))))
Tm: 50.9 °C

CGACGTGCTCAATGTGCTG+CAGCACATACTGCACGTCG ((((((((...((((((((+))))))))...))))))))
Tm: 48.7 °C

CGACGTGCTCAATGTGCTG+CAGCACATATAGCACGTCG (((((((((..((((((((+))))))))..)))))))))
Tm: 51.5 °C

CGACGTGCTCAATGTGCTG+CAGCACATATGGCACGTCG ((((((((...((((((((+))))))))...))))))))
Tm: 50.5 °C

CGACGTGCTCAATGTGCTG+CAGCACATCAAGCACGTCG (((((((((..((((((((+))))))))..)))))))))
Tm: 51.6 °C

CGACGTGCTCAATGTGCTG+CAGCACATCACGCACGTCG ((((((((...((((((((+))))))))...))))))))
Tm: 48.1 °C

CGACGTGCTCAATGTGCTG+CAGCACATCCCGCACGTCG ((((((((...((((((((+))))))))...))))))))
Tm: 48 °C

CGACGTGCTCAATGTGCTG+CAGCACATCTGGCACGTCG ((((((((...((((((((+))))))))...))))))))
Tm: 50.3 °C

CGACGTGCTCAATGTGCTG+CAGCACATGAGGCACGTCG ((((((((...((((((((+))))))))...))))))))
Tm: 53 °C

CGACGTGCTCAATGTGCTG+CAGCACATGCGGCACGTCG ((((((((...((((((((+))))))))...))))))))
Tm: 49.4 °C

CGACGTGCTCAATGTGCTG+CAGCACATGCTGCACGTCG ((((((((...((((((((+))))))))...))))))))
Tm: 47.9 °C

CGACGTGCTCAATGTGCTG+CAGCACATGGAGCACGTCG ((((((((((.((((((((+)))))))).))))))))))
Tm: 59.5 °C

CGACGTGCTCAATGTGCTG+CAGCACATGTAGCACGTCG (((((((((..((((((((+))))))))..)))))))))
Tm: 52.8 °C

CGACGTGCTCAATGTGCTG+CAGCACATGTTGCACGTCG ((((((((...((((((((+))))))))...))))))))
Tm: 50.1 °C

CGACGTGCTCAATGTGCTG+CAGCACATTAAGCACGTCG (((((((((.(((((((((+))))))))).)))))))))
Tm: 54.4 °C

CGACGTGCTCAATGTGCTG+CAGCACATTCTGCACGTCG ((((((((..(((((((((+)))))))))..))))))))
Tm: 50.8 °C

CGACGTGCTCAATGTGCTG+CAGCACATTGAGCACGTCG (((((((((((((((((((+)))))))))))))))))))
Tm: 64.2 °C

CGACGTGCTCAATGTGCTG+CAGCACATTGCGCACGTCG ((((((((.((((((((((+)))))))))).))))))))
Tm: 56.6 °C

CGACGTGCTCAATGTGCTG+CAGCACATTGGGCACGTCG ((((((((.((((((((((+)))))))))).))))))))
Tm: 60.1 °C

CGACGTGCTCCATGTGCTG+CAGCACATAAGGCACGTCG ((((((((...((((((((+))))))))...))))))))
Tm: 49 °C

CGACGTGCTCCATGTGCTG+CAGCACATAATGCACGTCG ((((((((...((((((((+))))))))...))))))))
Tm: 48.4 °C

CGACGTGCTCCATGTGCTG+CAGCACATACAGCACGTCG (((((((((..((((((((+))))))))..)))))))))
Tm: 49.6 °C

CGACGTGCTCCATGTGCTG+CAGCACATACCGCACGTCG ((((((((...((((((((+))))))))...))))))))
Tm: 46.3 °C

CGACGTGCTCCATGTGCTG+CAGCACATACGGCACGTCG ((((((((...((((((((+))))))))...))))))))
Tm: 47 °C

CGACGTGCTCCATGTGCTG+CAGCACATACTGCACGTCG ((((((((...((((((((+))))))))...))))))))
Tm: 47.4 °C

CGACGTGCTCCATGTGCTG+CAGCACATAGAGCACGTCG ((((((((((.((((((((+)))))))).))))))))))
Tm: 56.2 °C

CGACGTGCTCCATGTGCTG+CAGCACATATAGCACGTCG (((((((((..((((((((+))))))))..)))))))))
Tm: 50.4 °C

CGACGTGCTCCATGTGCTG+CAGCACATATCGCACGTCG ((((((((...((((((((+))))))))...))))))))
Tm: 46.4 °C

CGACGTGCTCCATGTGCTG+CAGCACATATGGCACGTCG ((((((((...((((((((+))))))))...))))))))
Tm: 49 °C

CGACGTGCTCCATGTGCTG+CAGCACATCATGCACGTCG ((((((((...((((((((+))))))))...))))))))
Tm: 47.7 °C

CGACGTGCTCCATGTGCTG+CAGCACATCCGGCACGTCG ((((((((...((((((((+))))))))...))))))))
Tm: 47.7 °C

CGACGTGCTCCATGTGCTG+CAGCACATCGAGCACGTCG ((((((((((.((((((((+)))))))).))))))))))
Tm: 55.2 °C

CGACGTGCTCCATGTGCTG+CAGCACATCTCGCACGTCG ((((((((...((((((((+))))))))...))))))))
Tm: 46.2 °C

CGACGTGCTCCATGTGCTG+CAGCACATCTTGCACGTCG ((((((((...((((((((+))))))))...))))))))
Tm: 47.2 °C
